Assay results published in patent US20240352445A1 (ABWIZ BIO, published 2024).

B1: SEQ ID NO 12 (antibody, V domains shown)
VH: EVQLVESGGGLVQPGGSLRLSCTVSGFSLSTYAMSWVRQAPGKGLEWIGVIASNADTYYASWAKGRFTISRDNSKNTLYLQMNSLRAEDTAVYYCARHPGSAGYGYAVYYAMDPWGQGTLVTVSS
VL: DIQMTQSPSSLSASVGDRVTITCQASQPIHYAINWYQQKPGKAPKLLIYGTSHRKMGVPSRFSGSGSGTDYTLTISSLQPEDFATYYCQQGYIVALKFGGGTKVEIK
notes: also called selected clone from LxC libraries; LxC clone
B2: SEQ ID NO 15 (antibody, V domains shown)
VH: EVQLVESGGGLVQPGGSLRLSCTVSGFSLSTYAMSWVRQAPGKGLEWIGVIASNADTYYASWAKGRFTISRDNSKNTLYLQMNSLRAEDTAVYYCARHPGSAGYGYAVYYAMDPWGQGTLVTVSS
VL: DIQMTQSPSSLSASVGDRVTITCQASQKIHYAINWYQQKPGKAPKLLIYGTSYLGGGVPSRFSGSGSGTDFTLTISSLQPEDFATYYCQQGYIVPNSFGGGTKVEIK
notes: As m4
B3: SEQ ID NO 16 (antibody, V domains shown)
VH: EVQLVESGGGLVQPGGSLRLSCTVSGFSLSTYAMSWVRQAPGKGLEWIGVIASNADTYYASWAKGRFTISRDNSKNTLYLQMNSLRAEDTAVYYCARHPGSAGYGYAVYYAMDPWGQGTLVTVSS
VL: DIQMTQSPSSLSASVGDRVTITCQASQDVKYAINWYQQKPGKAPKLLIYGTSSRGEGVPSRFSGSGSGTDYTLTISSLQPEDFATYYCQQGYVVSIFFGGGTKVEIK
notes: As m4
B4: SEQ ID NO 18 (antibody, V domains shown)
VH: EVQLVESGGGLVQPGGSLRLSCTVSGFSLSTYAMSWVRQAPGKGLEWIGVIASNADTYYASWAKGRFTISRDNSKNTLYLQMNSLRAEDTAVYYCARHPGSAGYGYAVYYAMDPWGQGTLVTVSS
VL: DIQMTQSPSSLSASVGDRVTITCKASEDIRYGLNWYQQKPGKAPKLLIYGGSYLRWGVPSRFSGSGSGTDYTLTISSLQPEDFATYYCQQGYRVPIRFGGGTKVEIK
notes: As m4; also called selected clone from LxC libraries; LxC clone
B5: SEQ ID NO 17 (antibody, V domains shown)
VH: EVQLVESGGGLVQPGGSLRLSCTVSGFSLSTYAMSWVRQAPGKGLEWIGVIASNADTYYASWAKGRFTISRDNSKNTLYLQMNSLRAEDTAVYYCARHPGSAGYGYAVYYAMDPWGQGTLVTVSS
VL: DIQMTQSPSSLSASVGDRVTITCQASQPIYYGINWYQQKPGKAPKLLIYGHTYRAWGVPSRFSGSGSGTDFTLTISSLQPEDFATYYCQQGYRVGLGFGGGTKVEIK
notes: As m4

Biological target: SARS-CoV-2 spike protein trimer, wild type (SARS-CoV-2, UniProt P0DTC2 16-1213)
Assay: ELISA, purified IgG

| Binder | binding result |
| --- | --- |
| B1 | binds |
| B2 | binds |
| B3 | binds |
| B4 | binds |
| B5 | binds |
